Laboratory results: PMC3769240

Target: Non-structural NS1 protein of human respiratory syncytial virus (hRSV) strain A (human respiratory syncytial virus strain A) (UniProt P0DOE9)
Test: dynamic light scattering; NS1SOs made by heat (10 minutes at 70°C in Tris 10 mM pH 8, DTT 1 mM); measured at 20°C

Non-structural NS1 protein of human respiratory syncytial virus (hRSV) strain A (from UniProt P0DOE9 1-139) (natural protein)
stoichiometry N (NS1 monomers per molecule of oligomer): 149
